In patent US8497072 (AbbVie / Abbott, dated 2013):

Columns and labels:
[1] = molecular target: T1, Aβ1-42 monomer (dot blot) (human); assay: dot blot, 10 pmol antigen on nitrocellulose, 0.2 µg/ml antibody, densitometry
T1 construct: also called Aβ42 monomer
Method: (§1) In a second example, described in Example 2.2 below, the oligomer selectivity versus Aβ(1-42) monomer and Aβ(1-40) monomer was examined by dot blot immunoassay.
(§2) Serial dilutions of Aβ(1-42) globulomer, Aβ1-42 monomer and Aβ1-40 monomer were made in the range from 100 pmol/μl-0.01 pmol/μl in PBS. Of each sample, 1 μl was dotted onto a nitrocellulose membrane. […] The detection signal was analyzed in its intensity (reflective density=RD) via a densitometer (GS 800, Biorad, Hercules, Calif., USA) at an antigen concentration of 10 pmol.

Aβ(1-40) monomer [2] = molecular target: T2, Aβ(1-40) monomer (human); assay: as above
T2 construct: also called Aβ40; Aβ(1-40) monomer HFIP pretreated
T2 sequence (peptide, as listed by the source): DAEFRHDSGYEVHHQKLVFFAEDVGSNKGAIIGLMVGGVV
Method: as §1, §2

Aβ(1-42) globulomer [3] = molecular target: T3, Aβ(1-42) globulomer (human, UniProt P05067 672-713); assay: as above
T3 construct: The definitions give n=12-14 subunits for late assembly forms; no subunit number is stated for the preparation used; also called A-beta (1-42) globulomer; Aβ(1-42) globular oligomer
T3 sequence (P05067 672-713 limits assumed): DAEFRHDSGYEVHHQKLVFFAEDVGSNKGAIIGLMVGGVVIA
Method: as §1, §2

Aβ(1-40) monomer [4] = molecular target: T2, Aβ(1-40) monomer; assay: sandwich ELISA, 6G1 capture, antigen titrated, biotinylated 8F5 detection
Method: (§3) Two types of experiments were performed. […] This experiment is described in Example 2.1 below.
(§4) Add 10 μl Aβ(1-42) monomer HFIP-pretreated standard stock solution to 44041 PBST+0.5% BSA 10 μg/ml Add 50 μl 10 μg/ml Aβ(1-42) monomer HFIP pretreated standard solution to 495041 PBST+0.5% BSA=100 ng/ml c) Aβ(1-42) monomer in NH4OH Add 5 μl Aβ(1-42) monomer in NH4OH standard stock solution to 995 μl PBST+0.5% BSA=[…] Add 50 μl 10 μg/ml Aβ(1-42) monomer in NH4OH standard solution to 495041 PEST+[…]=100 ng/ml d) Aβ(1-40) monomer HFIP-pretreated Add 1 μl Aβ(1-40) monomer HFIP pretreated standard stock solution to 49 μl PBST+0.5% BSA=430 μg/ml Add 10 μl 430 μg/ml Aβ(1-40) monomer HFIP pretreated standard solution to […] PEST+0.5% BSA=10 μg/ml Add 50 μl 10 μg/ml Aβ(1-40) monomer HFIP pretreated standard solution to 4950 μl PBST+0.5% BSA 100 ng/ml Standard Curves:
(§5) 1. Apply 100 μl anti-Aβ mMAb 6G1 solution per well and incubate overnight at 4° C. 2. Discard the antibody solution and wash the wells with 250 μl PBST-Buffer three times. 3. Add 260 μl block solution per well and incubate 2 h at room temperature. 4. Discard the block solution and wash the wells with 250 μl PBST-Buffer three times. 5. After preparation of standards, apply 100 μl per well of standards to the plate. Incubate 2 h at room temperature and overnight at 4° C. 6. Discard the standard solution and wash the wells with 250 μl PBST-Buffer three times. 7. […] 8. Discard the antibody solution and wash the wells with 250 μl PBST-Buffer three times. 9. Add 200 μl label solution per well and incubate 1 h at room temperature. 10. Discard the label solution and wash the wells with 250 μl PBST-Buffer three times. 11. Add 100 μl of TMB solution to each well and incubate at room temperature (5-15 min). 12.

[5] = molecular target: Aβ(1-42) monomer in NH4OH (human); assay: as above
Sequence of Aβ(1-42) monomer in NH4OH (human) (peptide, as listed by the source): as the sequence (P05067 672-713 limits assumed) above
Method: as §3, §4, §5

Aβ(1-42) globulomer [6] = molecular target: T3, Aβ(1-42) globulomer; assay: as above
Method: as §3, §4, §5

[7] = molecular target: T4, Aβ(1-42) monomer, HFIP pretreated (human); assay: as above
T4 construct: also called Aβ(1-42) monomer in HFIP; Aβ(1-42) monomer HFIP treated
T4 sequence (peptide, as listed by the source): as the sequence (P05067 672-713 limits assumed) above
Method: as §3, §4, §5

Aβ(1-40) monomer [8] = molecular target: T2, Aβ(1-40) monomer; assay: sandwich ELISA, EC50 of this antigen divided by EC50 of Aβ(1-42) globulomer
[9] = molecular target: Aβ(1-42) monomer in NH4OH (human); assay: as above
[10] = molecular target: T4, Aβ(1-42) monomer, HFIP pretreated; assay: as above
[11] = molecular target: T5, endogenous Aβ(1-42) in human CSF (human); assay: IP from AD patient CSF, urea-PAGE Western blot, share of Aβ42 in recovered Aβ40+42
T5 construct: Endogenous peptide in cerebrospinal fluid of MCI and AD patients; it was quantified after elution by ELISA or urea-PAGE Western blot; also called Aβ42; Amyloid β(1-42)
T5 sequence (peptide, as listed by the source): as the sequence (P05067 672-713 limits assumed) above
Method: Immunoprecipitation of Abeta Species from Human AD-CSF: 250 μL aliquot of the prepared CSF sample were added to 25 μL anti-Aβ-Dynabeads suspension. Immunoprecipitation occurred under stirring at 6° C. for 16 hours. Subsequent washing of the beads was performed 3 times 5 min. with 1 mL PBS/0.1% (w/v) BSA and finally once 3 min. with 1 mL 10 mM Tris/HCL pH 7.5 buffer. During the washing procedure, the supernatant was carefully removed while the dynabeads were immobilized at the side of the reaction vial with a magnetic separator stand (MSS). The residual supernatant was thoroughly removed after the final washing step. […] After cooling to room temperature, the dynabeads were immobilized at the side of the reaction vial with a magnetic separator stand (MSS), and the supernatant was transferred to another Eppendorff tube (IP eluate).
15 μL IP eluate aliquots of the immunoprecipitated samples were loaded onto the 8 M Urea PAGE. Electrophoresis was performed at 100 V (15 min) and continued at 60 V. The electrophoresis was stopped when the running front of the blue sample loading dye was still 0.5 cm away from the end of the gel.

Aβ(1-42) globulomer [12] = molecular target: T3, Aβ(1-42) globulomer; assay: sandwich ELISA, reference Aβ(1-42) monomer
Aβ(1-42) globulomer [13] = molecular target: T3, Aβ(1-42) globulomer; assay: dot blot, reference Aβ(1-42) monomer
Method: as §1, §2

Aβ(1-42) globulomer [14] = molecular target: T3, Aβ(1-42) globulomer; assay: dot blot, reference Aβ(1-40) monomer
Method: as §1, §2

[15] = molecular target: T1, Aβ1-42 monomer (dot blot); assay: dot blot, 10 pmol antigen on nitrocellulose, densitometry
Method: as §1, §2

Aβ(1-40) monomer [16] = molecular target: T2, Aβ(1-40) monomer; assay: as above
Method: as §1, §2

Aβ(1-42) globulomer [17] = molecular target: T3, Aβ(1-42) globulomer; assay: as above
Method: as §1, §2

T1 sequence (peptide, as listed by the source): as the sequence (P05067 672-713 limits assumed) above

Reflective Density (RD) [10 pmol] [1] [RD] | Reflective Density (RD) [10 pmol] (Aβ(1-40) monomer [2]) [RD] | Reflective Density (RD) [10 pmol] (Aβ(1-42) globulomer [3]) [RD] | Log EC50 (Aβ(1-40) monomer [4]) | Log EC50 [5] | Log EC50 (Aβ(1-42) globulomer [6]) | Log EC50 [7] | selectivity factor (EC50 ratio against Aβ(1-42) globulomer) (Aβ(1-40) monomer [8]) [fold] | selectivity factor (EC50 ratio against Aβ(1-42) globulomer) [9] [fold] | selectivity factor (EC50 ratio against Aβ(1-42) globulomer) [10] [fold] | Ratio Aβ42/Aβ40+42 × 100% [11] [%] | selectivity for Aβ(1-42) globulomer versus Aβ(1-42) monomer (Aβ(1-42) globulomer [12]) [fold] | Ratio RD Aβ(1-42) globulomer/RD Aβ(1-42) monomer (Aβ(1-42) globulomer [13]) | Ratio RD Aβ(1-42) globulomer/RD Aβ(1-40) monomer (Aβ(1-42) globulomer [14]) | Reflective Density (RD) [10 pmol] [15] [RD] | Reflective Density (RD) [10 pmol] (Aβ(1-40) monomer [16]) [RD] | Reflective Density (RD) [10 pmol] (Aβ(1-42) globulomer [17]) [RD] | Binder
1.1 | 0.1 | 1.6 | 2.83 | 3 | 1.96 | 2.75 | 7.4 | 11.1 | 6.1 | 8.1 | ~10 | 1.4 | 16.9 |  |  |  | monoclonal antibody 8F5 (antibody, V domains shown, Murine monoclonal antibody from a hybridoma (Balb/c mice immunized with Aβ(1-42) globulomer); Biotinylated with Sulfo-NHS-Biotin for the sandwich ELISA; coupled to Sepharose or Dynabeads for the immunoprecipitations; also called mMAb 8F5; anti-Aβ mouse Mab 8F5) VH: EVQLVESGGGLVQPGGSLKLSCAASGFTFSSYGMSWVRQTPDKRLELVASINSNGGSTYYPDSVKGRFTISRDNAKNTLYLQMSSLKSEDTAMYYCASGDYWGQGSTLTVSS VL: DVVMTQTPLSLPVSLGDQASISCRSSQSLVYSNGDTYLHWYLQKPGQSPKLLIYKVSNRFSGVPDRFSGSGSGTDFTLKISRVEAEDLGVYFCSQSTHVPWTFGGGTKLEIKR
 |  |  |  |  |  |  | > 100 | > 100 | 4.1 | 14.9 |  | 5.1 | 4.1 | 0.2 | 0.3 | 1.3 | monoclonal antibody 8C5 (antibody, V domains shown, Murine monoclonal antibody from a hybridoma; Biotinylated for the sandwich ELISA; also called mMab 8C5; 5C5) VH: EVQLVESGGGLVQPGGSLKLSCTASGFTFSSYGMSWVRQTPDKRLELVASIKNNGGSTYYPDSLKGRFTISRDNAKNTLYLQMSSLKSEDTAMYYCASGDYWGQGTTLTVSS VL: DVVMTQTPLSLPVSLGDQASISCRSSQSLVHSNGDTFLHWYLQKPGQSPKLLIYKVSNRFSGVPDRFSGSGSGTDFTLKISRVEAEDLGIYFCSQSIHVPWTFGGGTKLEIKR
